Data published in paper PMC3378762.

Columns and labels:
NCCCNCCCCNCCCN = test: steady-state oxygen consumption, oxygen electrode; format: biochemical, Saccharomyces cerevisiae; settings: pH 9.35, 25 °C, 1.3 mM oxygen, 10% glycerol, pH 9.35
CC(=O)NCCCNCCCCNCCCN = test: steady-state oxygen consumption, oxygen electrode; format: biochemical, Saccharomyces cerevisiae; settings: pH 9.0, 25 °C, 1.3 mM oxygen, 10% glycerol
Lys315 = Lys315 (UniProt position 315, FGTNNKIFLEF); test: kinetics; settings: Oxidative half-reaction, N1-acetylspermine as amine substrate; cited from earlier work

Substance | Km (NCCCNCCCCNCCCN) [µM] | kcat (NCCCNCCCCNCCCN) [s⁻¹] | kcat/Km (NCCCNCCCCNCCCN) [M⁻¹ s⁻¹] | Km (CC(=O)NCCCNCCCCNCCCN; pH 9.0) [µM] | kcat (CC(=O)NCCCNCCCCNCCCN; pH 9.0) [s⁻¹] | kcat/Km (CC(=O)NCCCNCCCCNCCCN; pH 9.0) [M⁻¹ s⁻¹] | Km (CC(=O)NCCCNCCCCNCCCN) [µM] | kcat (CC(=O)NCCCNCCCCNCCCN) [s⁻¹] | kcat/Km (CC(=O)NCCCNCCCCNCCCN) [M⁻¹ s⁻¹] | pKa (Lys315)
Fms1 (Saccharomyces cerevisiae S288C; H67A) | 1740 ± 310 | 0.44 ± 0.03 | 250 ± 50 | 50 ± 13 | 2.7 ± 0.1 | 54000 ± 14000 |  |  |  | 
Fms1 (Saccharomyces cerevisiae S288C; H67N) |  |  |  |  |  |  | 18.6 ± 4.0 | 1.35 ± 0.04 | 72500 ± 15000 | 
Fms1 (Saccharomyces cerevisiae S288C; H67Q) | 165 ± 25 | 0.88 ± 0.01 |  | 47 ± 6 | 3.9 ± 0.1 | 83000 ± 11000 |  |  |  | 
N1-acetylpolyamine oxidase (mouse PAO) (Mus musculus) |  |  |  |  |  |  |  |  |  | 7.0
